B1: monoclonal antibody 7G1 (antibody, V domains shown)
VH: VQLQESGPELKKPGETVKISCKASGYTFTDYSMHWVKQAPGKGLKCMGWINTETTKSTYADDFKGRFALSLETSASTVYLQISNLKNEDTATYFCAREASYGEFDYWGQGTTVTVSS
VL: DIVLTQSPASLAVSLGQRATISCRASKSVSTSGYSYMHWYQQKPGQPPKLLIYLASNLESGVPARFSGSGSGTDFTLDIHPVEEEDAATYYCQHSRELPYTFGGGTKLELK

Legend:
[1] = biological target: FPRL1 on freshly isolated monocytes (human) (UniProt P25090); assay: cell-based or functional assay
[2] = biological target: T1, soluble recombinant uPAR fragment D2D3 93-274 (human, UniProt Q03405 115-296); assay: standard ELISA, coated purified protein, 7G1 as detecting antibody (FIG. 7A)
T1 construct: Purified from COS-7 supernatant on an anti-FLAG column; Mature-protein numbering
T1 sequence (Q03405 other isoform, or with tags, fused parts or gaps limits assumed): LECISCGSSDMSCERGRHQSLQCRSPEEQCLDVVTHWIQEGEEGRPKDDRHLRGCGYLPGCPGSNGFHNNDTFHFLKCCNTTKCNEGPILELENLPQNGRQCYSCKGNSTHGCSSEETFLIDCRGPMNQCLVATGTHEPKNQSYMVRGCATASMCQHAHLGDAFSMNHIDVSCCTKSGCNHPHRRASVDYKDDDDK

[3] = biological target: full length GPI-linked D1D2D3 (cell surface uPAR) (human) (UniProt Q03405); assay: cell-based or functional assay
Chain of full length GPI-linked D1D2D3 (cell surface uPAR) (human) (Q03405 23-305, one chain of several): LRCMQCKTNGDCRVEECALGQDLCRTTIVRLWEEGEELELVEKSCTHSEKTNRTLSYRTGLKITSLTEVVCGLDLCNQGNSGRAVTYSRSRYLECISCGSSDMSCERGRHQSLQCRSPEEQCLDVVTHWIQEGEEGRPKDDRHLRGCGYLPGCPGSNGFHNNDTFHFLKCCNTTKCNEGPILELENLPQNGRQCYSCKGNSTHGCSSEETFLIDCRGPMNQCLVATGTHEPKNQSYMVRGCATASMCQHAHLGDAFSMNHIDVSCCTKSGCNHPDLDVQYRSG

Chain of FPRL1 on freshly isolated monocytes (human) (P25090 whole entry, the tested form may be a part): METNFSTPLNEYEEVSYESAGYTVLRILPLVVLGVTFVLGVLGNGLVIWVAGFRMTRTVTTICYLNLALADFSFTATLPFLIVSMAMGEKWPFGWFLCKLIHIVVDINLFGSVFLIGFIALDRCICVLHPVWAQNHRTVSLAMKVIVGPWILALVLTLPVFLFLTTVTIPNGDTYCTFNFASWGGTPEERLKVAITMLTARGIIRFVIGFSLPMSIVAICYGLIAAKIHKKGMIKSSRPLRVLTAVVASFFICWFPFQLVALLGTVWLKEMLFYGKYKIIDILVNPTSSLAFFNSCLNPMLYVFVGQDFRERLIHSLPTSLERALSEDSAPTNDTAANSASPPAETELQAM

| Molecule | % induced migration of monocytes, MMK-1 as chemoattractant, rabbit IgG control present [1] [%] | Migration fold increase, MMK-1 as chemoattractant, rabbit IgG control present [1] [fold] | fold lower recognition than of D2D3 84-274 [2] [fold] | % induced migration (ATF) of monocytes, antibody 50 µg/ml [3] [%] | % of inhibition (referred to MOPC treatment) [3] [%] | Migration fold increase [3] [fold] |
| --- | --- | --- | --- | --- | --- | --- |
| MMK-1, FPRL1 ligand (peptide) | 303 | 2.94 | – | – | – | – |
| B1 | – | – | ≥ 100 | 210 | 10 | 2.44 |
